Reference: the supplement of paper PMC10065799, “High-throughput profiling of sequence recognition by tyrosine kinases and SH2 domains using bacterial peptide display” (eLife, 2023)

How the values were obtained:
SHP2-C SH2 = experiment: SH2 binding enrichment of the phosphorylated peptide, bacterial display (enrichment ratio); higher = better substrate or ligand; peptides without Tyr show the background
Grb2 SH2 = Grb2 SH2 (UniProt P62993); experiment: as above
c-Src SH2 = experiment: as above
FGFR3 = FGFR3 (UniProt P22607); experiment: phosphorylation enrichment, bacterial display (enrichment ratio); higher = better substrate or ligand; peptides without Tyr show the background
Sequence of FGFR3 (P22607 whole entry, looked up): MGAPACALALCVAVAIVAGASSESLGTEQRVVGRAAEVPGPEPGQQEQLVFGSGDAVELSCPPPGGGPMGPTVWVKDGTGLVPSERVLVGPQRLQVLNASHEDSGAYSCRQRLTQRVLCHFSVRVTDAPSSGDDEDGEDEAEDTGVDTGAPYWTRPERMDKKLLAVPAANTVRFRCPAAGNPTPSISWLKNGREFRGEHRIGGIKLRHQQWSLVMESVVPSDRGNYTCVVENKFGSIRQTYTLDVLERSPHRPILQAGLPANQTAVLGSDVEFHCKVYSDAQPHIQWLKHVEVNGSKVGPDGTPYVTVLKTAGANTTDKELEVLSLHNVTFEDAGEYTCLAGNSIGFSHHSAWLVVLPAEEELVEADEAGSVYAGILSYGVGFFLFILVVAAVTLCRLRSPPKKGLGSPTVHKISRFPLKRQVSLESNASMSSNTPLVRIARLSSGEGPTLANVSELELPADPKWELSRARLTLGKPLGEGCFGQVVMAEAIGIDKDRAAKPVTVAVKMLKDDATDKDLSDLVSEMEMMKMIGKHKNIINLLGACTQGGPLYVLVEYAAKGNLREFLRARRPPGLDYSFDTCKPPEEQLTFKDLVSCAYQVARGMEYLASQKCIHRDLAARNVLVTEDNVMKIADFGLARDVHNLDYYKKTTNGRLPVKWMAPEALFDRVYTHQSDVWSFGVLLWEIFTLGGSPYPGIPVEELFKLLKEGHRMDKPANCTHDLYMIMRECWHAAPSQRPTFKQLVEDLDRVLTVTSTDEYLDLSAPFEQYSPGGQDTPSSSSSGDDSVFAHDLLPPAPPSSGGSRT

c-Src = experiment: as above
c-Abl (mouse) = experiment: as above
Fes = Fes (UniProt P07332); experiment: as above
Sequence of Fes (P07332 whole entry, looked up): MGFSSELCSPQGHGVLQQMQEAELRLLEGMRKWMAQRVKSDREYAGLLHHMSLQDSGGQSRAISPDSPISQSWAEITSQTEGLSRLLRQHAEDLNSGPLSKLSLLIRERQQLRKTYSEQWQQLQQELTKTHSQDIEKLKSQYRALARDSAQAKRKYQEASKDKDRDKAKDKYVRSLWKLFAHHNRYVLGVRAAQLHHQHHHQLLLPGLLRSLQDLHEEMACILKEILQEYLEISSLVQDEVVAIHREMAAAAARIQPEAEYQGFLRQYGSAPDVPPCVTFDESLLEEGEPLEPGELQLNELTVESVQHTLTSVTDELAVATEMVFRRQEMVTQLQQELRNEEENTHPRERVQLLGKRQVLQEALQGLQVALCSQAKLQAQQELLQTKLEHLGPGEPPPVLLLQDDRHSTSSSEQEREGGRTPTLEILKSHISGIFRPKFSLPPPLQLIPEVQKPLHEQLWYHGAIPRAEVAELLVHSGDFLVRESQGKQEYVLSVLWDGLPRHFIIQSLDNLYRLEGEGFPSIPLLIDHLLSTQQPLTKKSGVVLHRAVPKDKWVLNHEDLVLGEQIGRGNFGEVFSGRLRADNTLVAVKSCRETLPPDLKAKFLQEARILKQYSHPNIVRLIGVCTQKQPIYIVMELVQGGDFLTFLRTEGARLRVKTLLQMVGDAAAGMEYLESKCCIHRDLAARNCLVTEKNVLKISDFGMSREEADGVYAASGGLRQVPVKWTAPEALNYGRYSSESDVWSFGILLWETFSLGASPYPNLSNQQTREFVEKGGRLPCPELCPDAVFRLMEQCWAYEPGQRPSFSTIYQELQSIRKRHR

Fyn = Fyn (UniProt P06241); experiment: as above
Sequence of Fyn (P06241 whole entry, looked up): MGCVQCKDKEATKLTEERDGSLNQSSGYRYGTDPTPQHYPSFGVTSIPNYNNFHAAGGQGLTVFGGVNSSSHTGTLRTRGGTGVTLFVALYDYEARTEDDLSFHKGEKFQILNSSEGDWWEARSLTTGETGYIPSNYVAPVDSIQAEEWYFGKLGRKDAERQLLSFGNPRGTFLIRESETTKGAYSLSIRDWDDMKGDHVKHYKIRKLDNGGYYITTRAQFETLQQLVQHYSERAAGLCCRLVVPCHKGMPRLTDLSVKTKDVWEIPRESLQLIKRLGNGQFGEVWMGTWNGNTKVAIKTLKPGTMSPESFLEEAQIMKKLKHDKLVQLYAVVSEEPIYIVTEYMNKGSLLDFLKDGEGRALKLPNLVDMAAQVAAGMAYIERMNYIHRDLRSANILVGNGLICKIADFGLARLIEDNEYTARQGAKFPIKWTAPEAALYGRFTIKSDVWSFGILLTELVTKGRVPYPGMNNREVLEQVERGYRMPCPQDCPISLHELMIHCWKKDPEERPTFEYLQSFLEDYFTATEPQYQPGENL

EPHB1 = EPHB1 (UniProt P54762); experiment: as above
Sequence of EPHB1 (P54762 whole entry, looked up): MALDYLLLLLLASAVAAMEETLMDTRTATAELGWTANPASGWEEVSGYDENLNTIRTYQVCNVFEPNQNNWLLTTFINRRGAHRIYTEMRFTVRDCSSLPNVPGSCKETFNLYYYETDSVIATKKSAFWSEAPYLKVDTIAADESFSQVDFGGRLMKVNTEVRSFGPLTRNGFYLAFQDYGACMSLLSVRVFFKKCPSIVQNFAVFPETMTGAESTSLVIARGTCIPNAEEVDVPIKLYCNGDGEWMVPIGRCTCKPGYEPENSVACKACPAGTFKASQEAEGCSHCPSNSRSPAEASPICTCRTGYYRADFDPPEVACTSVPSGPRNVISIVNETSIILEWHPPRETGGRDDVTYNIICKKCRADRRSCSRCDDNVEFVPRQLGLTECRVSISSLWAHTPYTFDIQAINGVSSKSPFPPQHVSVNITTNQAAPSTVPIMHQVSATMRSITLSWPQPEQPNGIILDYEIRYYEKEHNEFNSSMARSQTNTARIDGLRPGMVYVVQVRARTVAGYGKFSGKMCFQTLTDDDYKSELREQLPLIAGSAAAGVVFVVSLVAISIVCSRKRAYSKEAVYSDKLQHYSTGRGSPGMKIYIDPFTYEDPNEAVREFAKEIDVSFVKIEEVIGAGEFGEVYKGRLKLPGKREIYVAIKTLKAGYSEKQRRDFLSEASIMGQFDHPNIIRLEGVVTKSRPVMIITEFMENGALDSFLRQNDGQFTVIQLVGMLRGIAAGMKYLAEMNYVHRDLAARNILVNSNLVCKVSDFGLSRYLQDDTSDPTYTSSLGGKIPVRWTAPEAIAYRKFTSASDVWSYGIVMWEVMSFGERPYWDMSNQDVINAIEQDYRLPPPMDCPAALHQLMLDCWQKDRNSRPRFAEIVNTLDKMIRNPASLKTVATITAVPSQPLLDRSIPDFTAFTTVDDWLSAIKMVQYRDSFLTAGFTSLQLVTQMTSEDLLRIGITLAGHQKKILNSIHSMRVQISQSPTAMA

EPHB2 = EPHB2 (UniProt P29323); experiment: as above
Jak2 = Jak2 (UniProt O60674); experiment: as above
Sequence of Jak2 (O60674 whole entry, looked up): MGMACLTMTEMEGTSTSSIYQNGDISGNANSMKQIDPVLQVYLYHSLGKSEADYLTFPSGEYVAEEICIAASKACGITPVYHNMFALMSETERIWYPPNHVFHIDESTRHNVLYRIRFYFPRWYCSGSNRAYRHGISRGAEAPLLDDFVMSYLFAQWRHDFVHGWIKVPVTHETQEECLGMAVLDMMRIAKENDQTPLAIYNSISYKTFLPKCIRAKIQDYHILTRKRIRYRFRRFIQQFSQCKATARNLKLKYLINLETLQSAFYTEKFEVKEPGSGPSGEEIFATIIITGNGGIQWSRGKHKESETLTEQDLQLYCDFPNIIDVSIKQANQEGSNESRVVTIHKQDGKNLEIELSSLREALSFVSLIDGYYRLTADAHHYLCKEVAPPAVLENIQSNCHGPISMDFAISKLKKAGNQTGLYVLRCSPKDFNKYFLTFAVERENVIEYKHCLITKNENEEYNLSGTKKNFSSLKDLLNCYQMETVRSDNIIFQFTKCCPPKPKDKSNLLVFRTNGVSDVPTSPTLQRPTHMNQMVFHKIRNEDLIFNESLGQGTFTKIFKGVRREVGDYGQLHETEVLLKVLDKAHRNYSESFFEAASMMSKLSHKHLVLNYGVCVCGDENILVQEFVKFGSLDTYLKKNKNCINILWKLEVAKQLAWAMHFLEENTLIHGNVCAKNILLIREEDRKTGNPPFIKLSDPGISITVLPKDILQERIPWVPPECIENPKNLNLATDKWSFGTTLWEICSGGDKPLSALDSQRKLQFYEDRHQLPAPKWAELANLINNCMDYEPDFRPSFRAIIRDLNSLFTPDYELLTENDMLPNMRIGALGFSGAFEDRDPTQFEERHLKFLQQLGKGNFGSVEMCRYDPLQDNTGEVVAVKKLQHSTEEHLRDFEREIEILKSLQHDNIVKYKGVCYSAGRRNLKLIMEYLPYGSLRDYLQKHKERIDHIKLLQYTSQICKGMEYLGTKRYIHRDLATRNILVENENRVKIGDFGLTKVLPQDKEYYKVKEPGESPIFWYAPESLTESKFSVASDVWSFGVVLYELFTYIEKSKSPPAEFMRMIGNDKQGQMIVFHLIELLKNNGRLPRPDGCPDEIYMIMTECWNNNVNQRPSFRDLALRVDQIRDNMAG

MERTK = MERTK (UniProt Q12866); experiment: as above
AncSZ = experiment: as above
Fer (mouse) = experiment: as above
Hck = Hck (UniProt P08631); experiment: as above
Sequence of Hck (P08631 whole entry, looked up): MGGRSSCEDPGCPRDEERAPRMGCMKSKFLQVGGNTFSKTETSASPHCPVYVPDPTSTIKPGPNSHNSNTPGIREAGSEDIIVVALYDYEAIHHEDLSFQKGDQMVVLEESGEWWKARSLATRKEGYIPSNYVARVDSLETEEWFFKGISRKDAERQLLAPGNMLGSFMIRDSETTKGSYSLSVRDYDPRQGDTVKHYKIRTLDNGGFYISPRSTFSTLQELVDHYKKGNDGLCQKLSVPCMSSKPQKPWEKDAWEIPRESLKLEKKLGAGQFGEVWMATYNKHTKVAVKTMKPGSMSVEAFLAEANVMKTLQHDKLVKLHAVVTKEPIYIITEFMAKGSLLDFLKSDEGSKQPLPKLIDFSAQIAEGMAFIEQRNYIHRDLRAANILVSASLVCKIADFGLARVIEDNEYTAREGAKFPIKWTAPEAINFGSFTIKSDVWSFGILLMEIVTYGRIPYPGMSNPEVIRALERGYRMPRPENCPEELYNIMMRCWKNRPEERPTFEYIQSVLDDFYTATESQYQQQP

FGFR1 = FGFR1 (UniProt P11362); experiment: as above
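Throughout, for SH2 binding enrichment of the phosphorylated peptide, bacterial display: peptide library displayed on the E. coli surface as eCPX fusions, selected cells deep-sequenced, score is each peptide's frequency after selection divided by its frequency in the input.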
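Throughout, for phosphorylation enrichment, bacterial display: 11-residue human phosphosite peptides and single-mutation variants displayed on the E. coli surface, counted by deep sequencing, each peptide's frequency after selection divided by its frequency in the unselected input library; frequency after pTyr selection over input frequency; kinase dosed for 20-30% of maximal phosphorylation in three min.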

| SH2 binding enrichment (SHP2-C SH2) | SH2 binding enrichment (Grb2 SH2) | SH2 binding enrichment (c-Src SH2) | Sequence | phosphorylation enrichment (FGFR3) | phosphorylation enrichment (c-Src) | phosphorylation enrichment (c-Abl (mouse)) | phosphorylation enrichment (Fes) | phosphorylation enrichment (Fyn) | phosphorylation enrichment (EPHB1) | phosphorylation enrichment (EPHB2) | phosphorylation enrichment (Jak2) | phosphorylation enrichment (MERTK) | phosphorylation enrichment (AncSZ) | phosphorylation enrichment (Fer (mouse)) | phosphorylation enrichment (Hck) | phosphorylation enrichment (FGFR1) |
| --- | --- | --- | --- | --- | --- | --- | --- | --- | --- | --- | --- | --- | --- | --- | --- | --- |
| 0.843 | 0.954 | 2.67 | GTPVMYTYDEY [COL10A1_Y623] | 0.893 | 2.42 | 0.68 | 1.09 | 1.76 | 0.708 | 0.978 | 1.04 | 0.804 | 1.26 | 0.575 | 1.01 | 0.743 |
| 0.577 | 1.04 | 0.54 | LFMGDYVDRGF [PPP2CA_Y86_YF] | 0.943 | 0.61 | 0.616 | 0.963 | 0.814 | 0.961 | 1.19 | 0.696 | 0.396 | 0.95 | 0.546 | 0.673 | 0.822 |
| 0.592 | 0.889 | 0.469 | SLEKSYKLPDG [ACTA1_Y242_E243K] | 0.455 | 0.41 | 0.574 | 0.757 | 0.397 | 0.408 | 0.434 | 0.649 | 0.462 | 0.658 | 0.429 | 0.393 | 0.467 |
| 1.31 | 1.34 | 1.08 | QGLRLYRTHLA [BTK_Y617_P619T] | 0.365 | 0.312 | 0.448 | 0.478 | 0.339 | 0.359 | 0.486 | 0.577 | 0.333 | 0.509 | 0.42 | 0.317 | 0.306 |
| 1.18 | 0.792 | 1.47 | KKLEVYQSIAD [MYBPC3_Y548] | 0.75 | 0.798 | 0.55 | 0.882 | 0.725 | 0.557 | 0.529 | 0.857 | 0.488 | 0.878 | 0.502 | 1.08 | 0.499 |
| 6.49 | 0.985 | 1.73 | TRNVRYLTLDI [AKR1C2_Y305_N300T] | 0.634 | 0.384 | 0.557 | 0.887 | 0.407 | 0.787 | 0.521 | 0.684 | 0.372 | 0.633 | 0.429 | 0.487 | 0.421 |
| 0.756 | 0.826 | 0.506 | GIVKAYFVRAR [AIPL1_Y267_YF] | 0.558 | 0.467 | 0.669 | 0.991 | 0.488 | 0.445 | 0.434 | 1.13 | 0.512 | 1.11 | 0.463 | 0.503 | 0.487 |
| 0.606 | 0.633 | 0.529 | KGPNVYKKTVN [REV3L_Y1156] | 0.391 | 0.546 | 0.492 | 0.581 | 0.313 | 0.307 | 0.31 | 0.5 | 0.362 | 0.456 | 0.429 | 0.414 | 0.448 |
| 0.745 | 0.965 | 0.518 | AVNNFYAAKKT [CCDC178_Y422_D420N] | 0.402 | 0.463 | 0.542 | 0.58 | 0.372 | 0.373 | 0.352 | 0.566 | 0.475 | 0.708 | 0.369 | 0.428 | 0.52 |
| 0.487 | 0.525 | 0.436 | PMWHPYKVDVT [TP53TG5_Y255] | 0.872 | 2.06 | 0.433 | 1.27 | 1.3 | 0.753 | 0.54 | 0.643 | 0.398 | 1.09 | 0.611 | 0.5 | 0.561 |
| 0.859 | 0.759 | 0.513 | STQAHYRLSAF [ADAMTS9_Y100_S96T] | 0.536 | 0.323 | 0.427 | 0.63 | 0.461 | 0.395 | 0.381 | 0.487 | 0.409 | 0.582 | 0.386 | 0.456 | 0.44 |
| 1.41 | 0.966 | 0.667 | ADSLRYIFPKL [EIF2B3_Y92_YF] | 0.497 | 0.457 | 0.566 | 0.681 | 0.474 | 0.43 | 0.381 | 0.64 | 0.459 | 0.552 | 0.31 | 0.413 | 0.398 |
| 0.687 | 0.573 | 0.427 | RRAKGYPIDLF [ITGB2_Y125_YF] | 0.677 | 1.25 | 0.771 | 0.993 | 0.563 | 0.566 | 0.605 | 1.64 | 0.878 | 4.21 | 1.08 | 0.57 | 1.06 |
| 0.657 | 0.761 | 0.874 | ENRKYYMDLKE [PURA_Y156] | 0.573 | 0.331 | 0.588 | 0.912 | 0.418 | 0.563 | 0.473 | 0.734 | 0.466 | 0.733 | 0.445 | 0.543 | 0.474 |
| 0.713 | 0.902 | 0.548 | GKSHIYFWTLE [EML2_Y230] | 1.07 | 0.577 | 0.818 | 1.3 | 0.513 | 0.588 | 0.539 | 1.3 | 0.669 | 1.22 | 0.496 | 0.538 | 0.8 |
| 1.13 | 1.03 | 0.874 | AHLLQYNHRVK [LGALS3_Y221] | 0.442 | 0.459 | 0.668 | 0.604 | 0.288 | 0.461 | 0.493 | 0.562 | 0.42 | 0.592 | 0.371 | 0.366 | 0.397 |
| 0.478 | 0.821 | 0.519 | RRFLFYFSFLL [PTEN_Y177_V175L_YF] | 0.508 | 0.683 | 0.613 | 0.794 | 0.567 | 0.493 | 0.608 | 0.727 | 0.53 | 0.691 | 0.398 | 0.541 | 0.472 |
| 1.06 | 0.948 | 0.383 | SHMVDYQPFRK [TEX37_Y25_YF] | 0.464 | 0.672 | 0.967 | 0.705 | 0.5 | 0.549 | 0.445 | 1.03 | 0.473 | 0.564 | 0.294 | 0.732 | 0.387 |
| 0.621 | 0.762 | 0.413 | GHGEEYPVAGA [NOTCH3_Y2221_A2223V] | 0.48 | 0.398 | 0.592 | 0.755 | 0.438 | 0.451 | 0.424 | 0.682 | 0.373 | 0.763 | 0.408 | 0.421 | 0.481 |
| 0.71 | 0.946 | 0.498 | KDHPDYKFQPR [SOX10_Y171_YF] | 0.543 | 0.453 | 0.573 | 0.745 | 0.487 | 0.466 | 0.501 | 0.566 | 0.468 | 0.694 | 0.44 | 0.48 | 0.519 |
| 0.883 | 0.808 | 0.544 | HLTLVYGGIFL [FBP1_Y259_R255L] | 1.15 | 2.71 | 1.4 | 1.81 | 2.72 | 0.743 | 0.849 | 1.96 | 0.507 | 1.61 | 0.699 | 2.09 | 0.745 |
| 0.73 | 0.912 | 0.402 | INPIIYAFVVE [CCR5_Y297_G301V] | 1.29 | 2.59 | 2.37 | 1.5 | 2.42 | 4.53 | 3.82 | 1.2 | 4.13 | 1.25 | 2.66 | 1.78 | 1 |
| 0.795 | 0.901 | 0.479 | DISEPYKVYRI [IRF8_Y107] | 0.549 | 0.622 | 0.62 | 0.88 | 0.445 | 0.537 | 0.517 | 0.78 | 0.487 | 0.911 | 0.497 | 1.34 | 0.481 |
| 0.744 | 0.753 | 0.47 | GGFNNYGFGSD [HNRNPH3_Y159_N163S_YF] | 0.533 | 0.426 | 0.575 | 0.762 | 0.458 | 0.7 | 0.812 | 0.68 | 0.474 | 0.656 | 0.39 | 0.454 | 0.48 |
| 0.88 | 0.768 | 0.498 | DRIVNYSRASI [ATP7A_Y1459] | 0.426 | 0.37 | 0.585 | 0.589 | 0.374 | 0.432 | 0.4 | 0.48 | 0.383 | 0.538 | 0.41 | 0.405 | 0.423 |
| 3.3 | 1.08 | 1.58 | ATDLAYYLVRE [ASL_Y375_K380E] | 6.9 | 1.46 | 0.527 | 0.909 | 0.929 | 0.675 | 0.476 | 2.38 | 1.23 | 1.21 | 0.43 | 1.01 | 8.49 |
| 0.871 | 0.913 | 0.557 | TEDPEYDVQSK [PTCHD3_Y335] | 0.738 | 0.435 | 0.679 | 1.01 | 0.616 | 0.521 | 0.661 | 0.936 | 0.358 | 1.18 | 0.564 | 0.669 | 0.689 |
| 0.679 | 0.813 | 0.479 | FQRLRYIKQLG [SAMHD1_Y146] | 0.509 | 0.473 | 0.617 | 0.898 | 0.399 | 0.483 | 0.592 | 0.652 | 0.472 | 0.8 | 0.42 | 0.454 | 0.42 |

| Sequence | SH2 binding enrichment (SHP2-C SH2) | SH2 binding enrichment (Grb2 SH2) | SH2 binding enrichment (c-Src SH2) | phosphorylation enrichment (FGFR3) | phosphorylation enrichment (c-Src) | phosphorylation enrichment (c-Abl (mouse)) | phosphorylation enrichment (Fes) | phosphorylation enrichment (Fyn) | phosphorylation enrichment (EPHB1) | phosphorylation enrichment (EPHB2) | phosphorylation enrichment (Jak2) | phosphorylation enrichment (MERTK) | phosphorylation enrichment (AncSZ) | phosphorylation enrichment (Fer (mouse)) | phosphorylation enrichment (Hck) | phosphorylation enrichment (FGFR1) |
| --- | --- | --- | --- | --- | --- | --- | --- | --- | --- | --- | --- | --- | --- | --- | --- | --- |
| ESMLRYEVFGG [STOX1_Y607_YF] | 0.58 | 0.76 | 3.51 | 0.641 | 1.04 | 0.956 | 0.993 | 0.592 | 0.631 | 0.471 | 1.09 | 1.41 | 1.12 | 0.386 | 0.7 | 0.415 |
